Experimental data from patent publication US20160176953A1 (Regeneron, published 2016).

Assays:
Test in all cases: cell-based or functional assay
[1] = molecular target: Hemagglutinin of H1-IVR148 virus (Influenza A virus (H1-IVR148))
[2] = molecular target: Hemagglutinin of H13-MD77 virus (Influenza A virus (H13-MD77))
[3] = molecular target: Hemagglutinin of H1N1 A/California/07/2009 virus (Influenza A virus A/California/07/2009 …)
[4] = molecular target: Hemagglutinin of H1-WS33 virus (Influenza A virus (H1-WS33))
[5] = molecular target: Hemagglutinin of H9-RG26 virus (Influenza A virus (H9-RG26))
[6] = molecular target: Hemagglutinin of H16-DE09 virus (Influenza A virus (H16-DE09))

Row | Binder | IC50 (nM), cell viability microneutralization assay (MDCK) [1] [nM] | IC50 (nM), cell viability microneutralization assay (MDCK) [2] [nM] | IC50 (nM), cell viability microneutralization assay (MDCK) [3] [nM] | IC50 (nM), cell viability microneutralization assay (MDCK) [4] [nM] | IC50 (nM), cell viability microneutralization assay (MDCK) [5] [nM] | IC50 (nM), cell viability microneutralization assay (MDCK) [6] [nM]
1 | H2aM11829N (antibody, V domains shown) VH: QVHLVQSGPEVKKPGSSVKVSCKASGVTFISHAISWVRQAPGQGLEWVGGIIAIFGTTNYAQKFQGRVTVTTDKSTNTVYMELSRLRSEDTAIYYCARGETYYEGNFDFWGQGTLVTVSS VL: VIQMTQSPSSLSASVGDRVTITCRASQSVRSNLNWYQQTPGKAPRLLIYAASSLQSGVPSRFSGSGSGTDFTLTISSLQPEDFATYYCQQSYSTPPITFGQGTRLEIK | 48 | 2.11 | 3.5 | 1.68 | 10.2 | 7.39
2 | H1H11729P (antibody, V domains shown) VH: QVQLVQSGAEVKKSGSSVKVSCKASGGTFSSYAISWVRQAPGQGLEWMGGIIPIFGTPSYAQKFQDRVTITTDESTSTVYMELSSLRSEDTAVYYCARQQPVYQYNMDVWGQGTTVTVSS VL: DIQMTQSPSSLSASVGDRVTITCRASQGIRNNLGWYQQKPLKAPKRLIYAASSLQSGVPSRFSGSGSGTEFTLTISSLQPEDFATYYCLQYNNYPWTFGQGTKVEIK | 130 | 33.8 | 4.54 | 2.47 | 14.9 | 21.6
